Source: patent US20090311265A1 (CRUCELL HOLLAND B V, published 2009)
Substitutions are numbered along the chain they refer to.

B1: CR6325 (antibody, V domains shown)
VH: EVQLVESGAEVKKPGSSVKVSCKASGGTFSFYSMSWVRQAPGQGLEWMGGIIPMFGTTNYAQKFQGRVTITAVESTSTAYMEVSSLRSEDTAVYYCARGDKGIYYYYMDVWGKGTTVTVSS
VL: QSALTQPASVSGSPGQSITISCTGTSSDVGGYNYVSWYQQHPGKAPKLMIYEVSNRPSGVSNRFSGSKSGNTASLTISGLQAEDEADYYCSSYTSSSTLVFGTGTKVTVLG
B2: CR6268 (antibody, V domains shown)
VH: QVQLVQSGAEVKKPGSSVKVSCKASGGTFSSYAISWVRQAPGQGLEWMGGIMGMFGTTNYAQKFQGRVTITADEFTSAAYMELRSLRSEDTAVYYCARSSGYYPEYFQDWGQGTLVTVSS
VL: QSVLTQPPSESVSPGQTASVTCSGHKLGDKYVSWYQQKPGQSPVLLIYQDNRRPSGIPERFIGSNSGNTATLTISGTQALDEADYYCQAWDSSTAVFGGGTKLTVLG
B3: CR6336 (antibody, V domains shown)
VH: B2 VH with V2M, M52F, T58A, R84S, R87G, V93M, E105Q
VL: EIVMTQSPGTLSLSPGQRATLSCRASQSVSSSYLAWYQQKPGQAPRLLMYGASSRATGIPDRFSGSGSGTDFTLTISRLEPEDFAVYYCQQYGSSSLTFGGGTKLEIKR
B4: CR6329 (antibody, V domains shown)
VH: EVQLVQSGAEVKKPGSSVKVSCKASGGIFRSNSISWVRQAPGQGLEWMGGIFALFGTTDYAQKFQGRVTITADESSTTVYLELSSLTSEDTAVYYCARGSGYTTRNYFDYWGQGTLVTVSS
VL: B3 VL with M4L, Q17E, S32N, A35G, M49I, T57S, S66G, S96P, L105V
B5: CR6327 (antibody, V domains shown)
VH: EVQLVETGAEVKKPGSSVKVSCKASGGTFRTHAISWVRQAPGQGLEWMGGIIAIFGTANYAQKFQGRITITADESTSTAYMELSSLRSEDTAVYFCARGSGYHISTPFDNWGQGTLVTVSS
VL: SYVLTQPPSVSVAPGQTARITCGGNNIGSKGVHWYQQKPGQAPVLVVYDDSDRPSGIPERFSGSNSGNTATLTISRVEAGDEADYYCQVWDSSSDHVVFGGGTKLTVLG
B6: CR6331 (antibody, V domains shown)
VH: EVQLVESGAEVKKPGSSVKVSCKASGGTFSSYAISWVRQAPGQGLEWMGGIIGMFGTANYAQKFQGRVTITADEFTSTAYMELSSLRSEDTAVYYCARGNYYYESSLDYWGQGTLVTVSS
VL: B5 VL with S1Q, Y2S, L4V, G31S, V97Y, G101T, L105V
B7: CR6332 (antibody, V domains shown)
VH: QVQLVQSGAEVKKPGSSVKVSCKASGGPFRNFAINWVRQAPGQGLEWMGGIIAVFGTTKYAHKFQGRVTITADDSTNTAYMELGSLKSEDTAVYYCARGPHYYSSYMDVWGEGTTVTVSS
VL: DIQLTQSPSSLSASVGDRVTITCRASQGISTYLAWYQQKPGKVPKLLIYAASTLQSGVPSRFSGSGSGTDFTLTISSLQPEDVATYYCQKYNSAPSFGPGTKVDIKR
B8: CR6255 (antibody, V domains shown)
VH: EVQLVESGAEVKKPGSSVKVSCKASGGPFRSYAISWVRQAPGQGPEWMGGIIPIFGTTKYAPKFQGRVTITADDFAGTVYMELSSLRSEDTAMYYCAKHMGYQVRETMDVWGKGTTVTVSS
VL: SYVLTQPPSASGTPGQRVTISCSGSTFNIGSNAVDWYRQLPGTAPKLLIYSNNQRPSGVPDRFSGSRSGTSASLAISGLQSEDEADYYCAAWDDILNVPVFGGGTKLTVLG
B9: CR6260 (antibody, V domains shown)
VH: B8 VH
VL: SYVLTQPPSVSGTPGQRVTISCSGSRSNVGDNSVYWYQHVPEMAPKLLVYKNTQRPSGVPARFSGSKSGTSASLAIIGLQSGDEADYYCVAWDDSVDGYVFGSGTKVTVLG
B10: CR6257 (antibody, V domains shown)
VH: B8 VH with E1Q, E6Q
VL: B1 VL with S9A, L99Y
B11: CR6310 (antibody, V domains shown)
VH: B8 VH
VL: B5 VL with G31S, V97A, K104Q
B12: CR6314 (antibody, V domains shown)
VH: B8 VH
VL: SYVLTQPPSASGTPGQRVTISCSGSSSNIGSNYVYWYQQLPGTAPKLLIYRDGQRPSGVPDRFSGSKSGTSASLAISGLRSDDEADYYCATWDDNLSGPVFGGGTKLTVLG
B13: CR6261 (antibody, V domains shown)
VH: B8 VH
VL: QSVLTQPPSVSAAPGQKVTISCSGSSSNIGNDYVSWYQQLPGTAPKLLIYDNNKRPSGIPDRFSGSKSGTSATLGITGLQTGDEANYYCATWDRRPTAYVVFGGGTKLTVLG
B14: CR6141 (antibody, V domains shown)
VH: EVQLVQSGAEVKKPGASVKVSCKASGYTFTGYYVYWVRQAPGQGLEWMGWISAYNGNTNYAQKFQGRVTITADKSTSTAYMELSSLRSEDTAVYYCARSRSLDVWGQGTTVTVSS
VL: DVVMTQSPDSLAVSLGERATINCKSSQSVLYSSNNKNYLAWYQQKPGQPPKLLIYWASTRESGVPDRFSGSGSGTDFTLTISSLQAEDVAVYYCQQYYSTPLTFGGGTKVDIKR
B15: CR6328 (antibody, V domains shown)
VH: EVQLVESGAEVKKPGSSVKVSCKASGHIFSGYAISWVRQAPGQGLEWMGGIIPIFGTTNYAQKFQGRVTITADQSTSTAYMDLSNLRSEDTAVYYCARVKDGYCTLTSCPVGWYFDLWGRGTLVTVSS
VL: not shown
B16: CR6262 (antibody, V domains shown)
VH: QVQLQQSGAEVKKPGSSVKVSCKVSGVIFSGSAISWVRQAPGQGLEWMGGISPLFGTTNYAQKFQGRVTITADQSTNTTYMEVNSLRYEDTAVYFCARGPKYYSEYMDVWGKGTTVTVSS
VL: DIQMTQSPSSLSASVGDRVTITCRASQGISSYLAWYQQKPGKVPTLLIYDASTLRSGVPSRFSGSGSATDFTLTISSLQPEDVATYYCQRYNSAPPITFGQGTRLEIKR
B17: CR6334 (antibody, V domains shown)
VH: EVQLVETGAEVKKPGSSVKVPCKSSGSPFRSNAVSWVRQAPGQGLEWVGGILGVFGSPSYAQKFQGRVTITADESTNTVHMELRGLRSEDTAVYYCARGPTYYYSYMDVWGKGTTVTVSS
VL: SYVLTQPPSESVAPGQTARITCGGNNIGRNSVHWYQQKPGQAPVLVVYDDSDRPSGIPERFSGSKSGNTATLIISRVEVGDEADYYCQVWHSSSDHYVFGTGTKVTVLG
B18: CR6344 (antibody, V domains shown)
VH: QVQLVQSGAEVKKPGSSVRVSCKASGSIFRNYAMSWVRQAPGQGLEWMGGIIAIFGTPKYAQKFQGRVTITADESTSTVYMELSGLRSEDTAMYYCARIPHYNFGSGSYFDYWGQGTLVTVSS
VL: TVLTQPPSVSGAPGQRVTISCTGSSSNIGAGYDVHWYQQLPGTAPKLLIYGNSNRPSGVPDRFSGSKSGTSATLGITGLQTGDEADYYCGTWDSSLSAYVFGTGTKVTVLG

Columns and labels:
[1] = target: recombinant HA, subtype H3 (A/Wyoming/3/2003(H3N2)) (influenza A virus A/Wyoming/3/2003 …); assay: ELISA, coated HA, IgG 5 µg/ml
[2] = target: full-length HA from isolate A/Vietnam/1194/2004 (H5N1TV) on PER.C6 cells (influenza A virus A/Vietnam/1194/2004 …, UniProt Q80A26 6-554); assay: flow cytometry, transfected PER.C6 cells
[3] = target: recombinant HA, subtype H1 (A/New Caledonia/20/99 (H1N1)) (influenza A virus A/New Caledonia/20/99 …, UniProt Q289M7 18-565); assay: ELISA, coated HA, IgG 5 µg/ml
[4] = target: recombinant HA, subtype H5 (A/Vietnam/1203/2004 (H5N1)) (influenza A virus A/Vietnam/1203/2004 …, UniProt Q80A26 6-554); assay: ELISA, coated HA, IgG 5 µg/ml
[5] = target: soluble recombinant HA (sHA) of H5N1TV (influenza A virus A/Vietnam/1194/2004 …, UniProt Q6J8F6 17-528); assay: immunoblot (data not shown)

| Binder | OD 492 nm [1] [OD 492 nm] | flow cytometry signal at 0.1 µg/ml [2] | flow cytometry signal at 1 µg/ml [2] | flow cytometry signal at 10 µg/ml [2] | OD 492 nm [3] [OD 492 nm] | OD 492 nm [4] [OD 492 nm] | binding result [5] |
| --- | --- | --- | --- | --- | --- | --- | --- |
| B1 | 0.07 | – | – | – | – | – | – |
| B2 | 0.08 | 43.7 | 219 | 422 | 1.78 | 1.3 | – |
| B3 | 0.1 | – | – | – | 1.92 | 1.41 | – |
| B4 | 0.08 | – | – | – | – | – | – |
| B5 | 0.08 | – | – | – | – | 1.11 | – |
| B6 | 0.06 | – | – | – | – | 1.32 | – |
| B7 | 0.15 | – | – | – | 2.2 | 1.65 | – |
| B8 | 0.08 | 60.4 | 257 | 414 | 1.91 | 1.44 | – |
| B9 | 0.08 | 31.1 | 168 | 323 | – | 1.45 | – |
| B10 | 0.08 | 62.1 | 284 | 365 | 1.93 | 1.37 | – |
| B11 | 0.08 | – | – | – | – | 1.37 | – |
| B12 | 0.07 | 44.5 | 167 | 400 | 1.93 | 1.48 | – |
| B13 | 0.07 | – | – | – | – | – | – |
| B14 | – | – | – | – | – | – | binds |
| B15 | 0.07 | – | – | – | 2.43 | 1.78 | – |
| B16 | 0.09 | 8.06 | 20.9 | 84.3 | 1.48 | 1.02 | – |
| B17 | 0.07 | – | – | – | 2.04 | 1.19 | – |
| B18 | 0.09 | 107 | 328 | 768 | 1.8 | 1.31 | – |
